Values belong to the binder of their own block, whether it stands above or below them. Numbered stars: 1 amine (or outer) side, 2 acyl side, 3 side chain; on linkers, the order of the positions; unused ones are H or OH. Square brackets hold non-standard residues; d marks the D form. Side chains are listed from the residue outwards. Ends that are not written are not given here. * marks the point of attachment. C18 diacid = O=C(O)CCCCCCCCCCCCCCCCC(=O)*; γGlu = O=C(O)[C@H](CCC(=O)[*:2])N[*:1]; AEEA = NCCOCCOCC(=O)O; Aib = CC(C)(N)C(=O)O
Molecular target: glucagon receptor (UniProt P47871 26-477, limits assumed)
Test: cell-based or functional assay

Chain of glucagon receptor (P47871 26-477 limits assumed): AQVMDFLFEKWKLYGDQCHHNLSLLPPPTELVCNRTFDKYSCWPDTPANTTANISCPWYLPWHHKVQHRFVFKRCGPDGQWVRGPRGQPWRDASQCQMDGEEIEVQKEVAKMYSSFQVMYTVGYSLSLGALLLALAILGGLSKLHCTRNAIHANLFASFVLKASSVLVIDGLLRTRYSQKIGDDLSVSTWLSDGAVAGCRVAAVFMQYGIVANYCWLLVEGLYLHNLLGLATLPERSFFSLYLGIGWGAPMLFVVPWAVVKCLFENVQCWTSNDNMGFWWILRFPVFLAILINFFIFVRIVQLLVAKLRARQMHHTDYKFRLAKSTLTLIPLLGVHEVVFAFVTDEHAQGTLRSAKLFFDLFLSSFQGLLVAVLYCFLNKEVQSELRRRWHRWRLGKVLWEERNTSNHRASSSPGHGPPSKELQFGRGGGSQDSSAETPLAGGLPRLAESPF

Assay (I) Glucagon [EC50]: 12 pM
B5: N^ε25 … (peptide)
peptide: HSQGTFTSDYSKYLDSKRAQEFVQK([AEEA-AEEA-γGlu-C18 diacid])LLNT-NH2
modifications: N-terminus assumed
SMILES: CC(C)C[C@H](NC(=O)[C@H](Cc1ccc(O)cc1)NC(=O)[C@H](CCCCN)NC(=O)[C@H](CO)NC(=O)[C@H](Cc1ccc(O)cc1)NC(=O)[C@H](CC(=O)O)NC(=O)[C@H](CO)NC(=O)[C@@H](NC(=O)[C@H](Cc1ccccc1)NC(=O)[C@@H](NC(=O)CNC(=O)[C@H](CCC(N)=O)NC(=O)[C@H](CO)NC(=O)[C@@H](N)Cc1c[nH]cn1)[C@@H](C)O)[C@@H](C)O)C(=O)N[C@@H](CC(=O)O)C(=O)N[C@@H](CO)C(=O)N[C@@H](CCCCN)C(=O)N[C@@H](CCCNC(=N)N)C(=O)N[C@@H](C)C(=O)N[C@@H](CCC(N)=O)C(=O)N[C@@H](CCC(=O)O)C(=O)N[C@@H](Cc1ccccc1)C(=O)N[C@H](C(=O)N[C@@H](CCC(N)=O)C(=O)N[C@@H](CCCCNC(=O)COCCOCCNC(=O)COCCOCCNC(=O)CC[C@H](NC(=O)CCCCCCCCCCCCCCCCC(=O)O)C(=O)O)C(=O)N[C@@H](CC(C)C)C(=O)N[C@@H](CC(C)C)C(=O)N[C@@H](CC(N)=O)C(=O)N[C@H](C(N)=O)[C@@H](C)O)C(C)C

Assay (I) Glucagon [EC50]: 19 pM
Binder: HSQGTFTSDYSKYLDSKKAQEFVK([AEEA-AEEA-γGlu-C18 diacid])WLLNT

Assay (I) Glucagon [EC50]: 17 pM
B6: N^α- ([Lys^17, Glu^21, Leu^27]Glucagonyl) … (peptide)
peptide: HSQGTFTSDYSKYLDSKRAQEFVQWLLNTK([AEEA-AEEA-γGlu-C18 diacid])-NH2
modifications: N-terminus assumed
SMILES: CC(C)C[C@H](NC(=O)[C@H](Cc1ccc(O)cc1)NC(=O)[C@H](CCCCN)NC(=O)[C@H](CO)NC(=O)[C@H](Cc1ccc(O)cc1)NC(=O)[C@H](CC(=O)O)NC(=O)[C@H](CO)NC(=O)[C@@H](NC(=O)[C@H](Cc1ccccc1)NC(=O)[C@@H](NC(=O)CNC(=O)[C@H](CCC(N)=O)NC(=O)[C@H](CO)NC(=O)[C@@H](N)Cc1c[nH]cn1)[C@@H](C)O)[C@@H](C)O)C(=O)N[C@@H](CC(=O)O)C(=O)N[C@@H](CO)C(=O)N[C@@H](CCCCN)C(=O)N[C@@H](CCCNC(=N)N)C(=O)N[C@@H](C)C(=O)N[C@@H](CCC(N)=O)C(=O)N[C@@H](CCC(=O)O)C(=O)N[C@@H](Cc1ccccc1)C(=O)N[C@H](C(=O)N[C@@H](CCC(N)=O)C(=O)N[C@@H](Cc1c[nH]c2ccccc12)C(=O)N[C@@H](CC(C)C)C(=O)N[C@@H](CC(C)C)C(=O)N[C@@H](CC(N)=O)C(=O)N[C@H](C(=O)N[C@@H](CCCCNC(=O)COCCOCCNC(=O)COCCOCCNC(=O)CC[C@H](NC(=O)CCCCCCCCCCCCCCCCC(=O)O)C(=O)O)C(N)=O)[C@@H](C)O)C(C)C

Assay (I) Glucagon [EC50]: 15 pM
B7: N^ε24-([2-[2-[2-[[2-[2-[2-[[(4S)-5-hydroxy-4-[(18-hydroxy-18-oxooctadecanoyl)amino]-5-oxopentanoyl]amino]ethoxy]ethoxy]acetyl]amino]ethoxy]ethoxy]acetyl])[Glu^1 … (peptide)
peptide: HSQGTFTSDYSKYLDEKRAQEFVK([AEEA-AEEA-γGlu-C18 diacid])WLLNT-NH2
modifications: N-terminus assumed
SMILES: CC(C)C[C@H](NC(=O)[C@H](Cc1ccc(O)cc1)NC(=O)[C@H](CCCCN)NC(=O)[C@H](CO)NC(=O)[C@H](Cc1ccc(O)cc1)NC(=O)[C@H](CC(=O)O)NC(=O)[C@H](CO)NC(=O)[C@@H](NC(=O)[C@H](Cc1ccccc1)NC(=O)[C@@H](NC(=O)CNC(=O)[C@H](CCC(N)=O)NC(=O)[C@H](CO)NC(=O)[C@@H](N)Cc1c[nH]cn1)[C@@H](C)O)[C@@H](C)O)C(=O)N[C@@H](CC(=O)O)C(=O)N[C@@H](CCC(=O)O)C(=O)N[C@@H](CCCCN)C(=O)N[C@@H](CCCNC(=N)N)C(=O)N[C@@H](C)C(=O)N[C@@H](CCC(N)=O)C(=O)N[C@@H](CCC(=O)O)C(=O)N[C@@H](Cc1ccccc1)C(=O)N[C@H](C(=O)N[C@@H](CCCCNC(=O)COCCOCCNC(=O)COCCOCCNC(=O)CC[C@H](NC(=O)CCCCCCCCCCCCCCCCC(=O)O)C(=O)O)C(=O)N[C@@H](Cc1c[nH]c2ccccc12)C(=O)N[C@@H](CC(C)C)C(=O)N[C@@H](CC(C)C)C(=O)N[C@@H](CC(N)=O)C(=O)N[C@H](C(N)=O)[C@@H](C)O)C(C)C

Assay (I) Glucagon [EC50]: 3 pM
B8: N^ε24-([2-[2-[2-[[2-[2-[2-[[(4S)-5-hydroxy-4-[(18-hydroxy-18-oxooctadecanoyl)amino]-5-oxopentanoyl]amino]ethoxy]ethoxy]acetyl]amino]ethoxy]ethoxy]acetyl])[Lys^1 … (peptide)
peptide: HSQGTFTSDYSKYLDSKRAQEFVK([AEEA-AEEA-γGlu-C18 diacid])WLLET-NH2
modifications: N-terminus assumed
SMILES: CC(C)C[C@H](NC(=O)[C@H](Cc1ccc(O)cc1)NC(=O)[C@H](CCCCN)NC(=O)[C@H](CO)NC(=O)[C@H](Cc1ccc(O)cc1)NC(=O)[C@H](CC(=O)O)NC(=O)[C@H](CO)NC(=O)[C@@H](NC(=O)[C@H](Cc1ccccc1)NC(=O)[C@@H](NC(=O)CNC(=O)[C@H](CCC(N)=O)NC(=O)[C@H](CO)NC(=O)[C@@H](N)Cc1c[nH]cn1)[C@@H](C)O)[C@@H](C)O)C(=O)N[C@@H](CC(=O)O)C(=O)N[C@@H](CO)C(=O)N[C@@H](CCCCN)C(=O)N[C@@H](CCCNC(=N)N)C(=O)N[C@@H](C)C(=O)N[C@@H](CCC(N)=O)C(=O)N[C@@H](CCC(=O)O)C(=O)N[C@@H](Cc1ccccc1)C(=O)N[C@H](C(=O)N[C@@H](CCCCNC(=O)COCCOCCNC(=O)COCCOCCNC(=O)CC[C@H](NC(=O)CCCCCCCCCCCCCCCCC(=O)O)C(=O)O)C(=O)N[C@@H](Cc1c[nH]c2ccccc12)C(=O)N[C@@H](CC(C)C)C(=O)N[C@@H](CC(C)C)C(=O)N[C@@H](CCC(=O)O)C(=O)N[C@H](C(N)=O)[C@@H](C)O)C(C)C

Continued, binder first:

B1: N^ε24-([2-[2-[2-[[2-[2-[2-[[(4S)-5-hydroxy-4-[(18-hydroxy-18-oxooctadecanoyl)amino]-5-oxopentanoyl]amino]ethoxy]ethoxy]acetyl]amino]ethoxy]ethoxy]acetyl]) … (peptide)
peptide: HSQGTFTSDYSKYLDSKRAQEFVK([AEEA-AEEA-γGlu-C18 diacid])WLLST-NH2
modifications: N-terminus assumed
SMILES: CC(C)C[C@H](NC(=O)[C@H](Cc1ccc(O)cc1)NC(=O)[C@H](CCCCN)NC(=O)[C@H](CO)NC(=O)[C@H](Cc1ccc(O)cc1)NC(=O)[C@H](CC(=O)O)NC(=O)[C@H](CO)NC(=O)[C@@H](NC(=O)[C@H](Cc1ccccc1)NC(=O)[C@@H](NC(=O)CNC(=O)[C@H](CCC(N)=O)NC(=O)[C@H](CO)NC(=O)[C@@H](N)Cc1c[nH]cn1)[C@@H](C)O)[C@@H](C)O)C(=O)N[C@@H](CC(=O)O)C(=O)N[C@@H](CO)C(=O)N[C@@H](CCCCN)C(=O)N[C@@H](CCCNC(=N)N)C(=O)N[C@@H](C)C(=O)N[C@@H](CCC(N)=O)C(=O)N[C@@H](CCC(=O)O)C(=O)N[C@@H](Cc1ccccc1)C(=O)N[C@H](C(=O)N[C@@H](CCCCNC(=O)COCCOCCNC(=O)COCCOCCNC(=O)CC[C@H](NC(=O)CCCCCCCCCCCCCCCCC(=O)O)C(=O)O)C(=O)N[C@@H](Cc1c[nH]c2ccccc12)C(=O)N[C@@H](CC(C)C)C(=O)N[C@@H](CC(C)C)C(=O)N[C@@H](CO)C(=O)N[C@H](C(N)=O)[C@@H](C)O)C(C)C
Assay (I) Glucagon [EC50]: 7 pM

B2: N^ε27 ([2-[2-[2-[[2-[2-[2-[[(4S)-5-hydroxy-4-[(18-hydroxy-18-oxooctadecanoyl)amino]-5-oxopentanoyl]amino]ethoxy]ethoxy]acetyl]amino]ethoxy]ethoxy]acetyl]) … (peptide)
peptide: HSQGTFTSDYSKYLDSKRAQEFVQWLK([AEEA-AEEA-γGlu-C18 diacid])NT-NH2
modifications: N-terminus assumed
SMILES: CC(C)C[C@H](NC(=O)[C@H](Cc1ccc(O)cc1)NC(=O)[C@H](CCCCN)NC(=O)[C@H](CO)NC(=O)[C@H](Cc1ccc(O)cc1)NC(=O)[C@H](CC(=O)O)NC(=O)[C@H](CO)NC(=O)[C@@H](NC(=O)[C@H](Cc1ccccc1)NC(=O)[C@@H](NC(=O)CNC(=O)[C@H](CCC(N)=O)NC(=O)[C@H](CO)NC(=O)[C@@H](N)Cc1c[nH]cn1)[C@@H](C)O)[C@@H](C)O)C(=O)N[C@@H](CC(=O)O)C(=O)N[C@@H](CO)C(=O)N[C@@H](CCCCN)C(=O)N[C@@H](CCCNC(=N)N)C(=O)N[C@@H](C)C(=O)N[C@@H](CCC(N)=O)C(=O)N[C@@H](CCC(=O)O)C(=O)N[C@@H](Cc1ccccc1)C(=O)N[C@H](C(=O)N[C@@H](CCC(N)=O)C(=O)N[C@@H](Cc1c[nH]c2ccccc12)C(=O)N[C@@H](CC(C)C)C(=O)N[C@@H](CCCCNC(=O)COCCOCCNC(=O)COCCOCCNC(=O)CC[C@H](NC(=O)CCCCCCCCCCCCCCCCC(=O)O)C(=O)O)C(=O)N[C@@H](CC(N)=O)C(=O)N[C@H](C(N)=O)[C@@H](C)O)C(C)C
Assay (I) Glucagon [EC50]: 7 pM

B3: N^ε28 ([2-[2-[2-[[2-[2-[2-[[(4S)-5-hydroxy-4-[(18-hydroxy-18-oxooctadecanoyl)amino]-5-oxopentanoyl]amino]ethoxy]ethoxy]acetyl]amino]ethoxy]ethoxy]acetyl]) … (peptide)
peptide: HSQGTFTSDYSKYLDSKRAQEFVQWLLK([AEEA-AEEA-γGlu-C18 diacid])T-NH2
modifications: N-terminus assumed
SMILES: CC(C)C[C@H](NC(=O)[C@H](Cc1ccc(O)cc1)NC(=O)[C@H](CCCCN)NC(=O)[C@H](CO)NC(=O)[C@H](Cc1ccc(O)cc1)NC(=O)[C@H](CC(=O)O)NC(=O)[C@H](CO)NC(=O)[C@@H](NC(=O)[C@H](Cc1ccccc1)NC(=O)[C@@H](NC(=O)CNC(=O)[C@H](CCC(N)=O)NC(=O)[C@H](CO)NC(=O)[C@@H](N)Cc1c[nH]cn1)[C@@H](C)O)[C@@H](C)O)C(=O)N[C@@H](CC(=O)O)C(=O)N[C@@H](CO)C(=O)N[C@@H](CCCCN)C(=O)N[C@@H](CCCNC(=N)N)C(=O)N[C@@H](C)C(=O)N[C@@H](CCC(N)=O)C(=O)N[C@@H](CCC(=O)O)C(=O)N[C@@H](Cc1ccccc1)C(=O)N[C@H](C(=O)N[C@@H](CCC(N)=O)C(=O)N[C@@H](Cc1c[nH]c2ccccc12)C(=O)N[C@@H](CC(C)C)C(=O)N[C@@H](CC(C)C)C(=O)N[C@@H](CCCCNC(=O)COCCOCCNC(=O)COCCOCCNC(=O)CC[C@H](NC(=O)CCCCCCCCCCCCCCCCC(=O)O)C(=O)O)C(=O)N[C@H](C(N)=O)[C@@H](C)O)C(C)C
Assay (I) Glucagon [EC50]: 3 pM

B4: N^ε16-([2-[2-[2-[[2-[2-[2-[[(4S)-5-hydroxy-4-[(18-hydroxy-18-oxooctadecanoyl)amino]-5-oxopentanoyl]amino]ethoxy]ethoxy]acetyl]amino]ethoxy]ethoxy]acetyl])[Aib^2 … (peptide)
peptide: H[Aib]QGTFTSDYSKYLDK([AEEA-AEEA-γGlu-C18 diacid])KRAQEFVQWLLNT-NH2
modifications: N-terminus assumed
SMILES: CC(C)C[C@H](NC(=O)[C@H](Cc1ccc(O)cc1)NC(=O)[C@H](CCCCN)NC(=O)[C@H](CO)NC(=O)[C@H](Cc1ccc(O)cc1)NC(=O)[C@H](CC(=O)O)NC(=O)[C@H](CO)NC(=O)[C@@H](NC(=O)[C@H](Cc1ccccc1)NC(=O)[C@@H](NC(=O)CNC(=O)[C@H](CCC(N)=O)NC(=O)C(C)(C)NC(=O)[C@@H](N)Cc1c[nH]cn1)[C@@H](C)O)[C@@H](C)O)C(=O)N[C@@H](CC(=O)O)C(=O)N[C@@H](CCCCNC(=O)COCCOCCNC(=O)COCCOCCNC(=O)CC[C@H](NC(=O)CCCCCCCCCCCCCCCCC(=O)O)C(=O)O)C(=O)N[C@@H](CCCCN)C(=O)N[C@@H](CCCNC(=N)N)C(=O)N[C@@H](C)C(=O)N[C@@H](CCC(N)=O)C(=O)N[C@@H](CCC(=O)O)C(=O)N[C@@H](Cc1ccccc1)C(=O)N[C@H](C(=O)N[C@@H](CCC(N)=O)C(=O)N[C@@H](Cc1c[nH]c2ccccc12)C(=O)N[C@@H](CC(C)C)C(=O)N[C@@H](CC(C)C)C(=O)N[C@@H](CC(N)=O)C(=O)N[C@H](C(N)=O)[C@@H](C)O)C(C)C
Assay (I) Glucagon [EC50]: 7 pM

From patent US20130143798A1 (Novo Nordisk, published 2013)
